Drawing on paper doi:10.1101/102160, this text covers stoichiometry N for two substances.

Assay [1] concerns the target NTD1-CTD1 heterodimer (with canthaxanthin) (Fremyella diplosiphon UTEX481). As to the kind of experiment: SEC.
Assay [2] deals with CTD2, C-terminal domain of the OCP2 from Fremyella diplosiphon, with C-terminal HisTag (Fremyella diplosiphon UTEX481). As to the kind of experiment: SEC.

Turning to “NTD1-CTD1 heterodimer (with canthaxanthin) (complex)”, the stoichiometry N in assay [1] was found to be 2.

Substance “CTD2, C-terminal domain of the OCP2 from Fremyella diplosiphon, with C-terminal HisTag (domain or fragment)” had a stoichiometry N in assay [2] of 2.
